Experiments:
[1] = Degree of monomerization of non-boiled samples in SDS-PAGE / Western blot; type: physicochemical
Method: FIG. 3: Western blot analysis of cell culture supernatants from B. subtilis strains producing streptavidin muteins carrying a single mutation. 15 μl of non-boiled sample of culture supernatant was loaded to each lane. Samples on the left set were collected from B. subtilis strains cultured in super-rich medium without additional supplement of biotin. Samples on the right set were collected from B. subtilis strains cultured in super-rich medium with additional supplementation of biotin (20 μM). The blot was probed with polyclonal antibodies against streptavidin and developed using 4-chloro-1-napthol (Bio-Rad) as the colour development agent. […] M, molecular weight markers; wt, wild type streptavidin.
FIG. 4: Analysis of culture supernatants from B. subtilis strains producing streptavidin muteins carrying different combinations of mutations. All these strains were cultivated in super-rich medium supplemented with biotin (20 μM). The 15 μl of non-boiled samples of culture supernatants were loaded. FIG. 4A. Coomassie blue stained SDS-polyacrylamide gel. Bands corresponding to tetrameric and monomeric streptavidin are marked by an asterisk and an arrowhead, respectively. FIG. 4B. Western blot probed with polyclonal antibodies against streptavidin. M, molecular weight markers; wt, wild type streptavidin; AK, mutein (D61A, W 120K); M1, mutein (T76R); M2, mutein (T76R, V125R); M4, mutein (T76R, V125R, V55T, L109T); C, negative control.
Streptavidin muteins carrying a single amino-acid change at the selected site may be produced in their soluble form by B. subtilis via secretion. Analysis of non-boiled culture supernatants by SDS-PAGE offers a quick screen for the mutation effect (Qureshi, 2001). Weaker subunit interaction would result in a higher percentage of the sample in the monomeric state on the SDS-polyacrylamide gel. Since biotin can strengthen subunit interaction, samples were analyzed in the presence or absence of biotin (Laitinen, 2001; Gonzalez, 1999).
In single mutation muteins, the impact of the mutation on weakening of the subunit interaction followed the order T76R>V125R>[…]≈V55R>V55T (FIG. 3 and Table 4). The T76R mutein (referred to herein as M1) existed 100% in the monomeric state on the SDS-polyacrylamide gel even in the presence of biotin. In contrast, V55T mutation had the lowest impact, with the majority of molecules in the tetrameric state even in the absence of added biotin. Presence of biotin shifts the majority of the three remaining muteins (V125R, V125T and V55R) to the tetrameric state. Changing valine to arginine exerted greater impact than changing it to threonine. This is true for both Val-125 and Val-55.

[2] = Dynamic light scattering (hydrodynamic radius, estimated molecular mass); type: physicochemical; conditions: for M (kDa) (Dynamic light scattering): calculated from measured RH using a protein calibration curve
Method: (§1) Molecular mass of purified streptavidin and its muteins was estimated by both gel filtration and dynamic light scattering studies. Gel filtration was performed on the Bio-Rad biologic workstation equipped with a Bio-Prep SE 100/17 column that had been calibrated with molecular mass protein markers (Bio-Rad). Molecular mass was also estimated from the hydrodynamic radius of the mutein obtained using a DynaPro MS dynamic light scattering instrument (Protein Solutions, USA) that had been calibrated with lysozyme. Protein samples (2-3 mg/ml in PBS) were passed through a 0.02 μm filter (Whatman Anodisc 13) immediately prior to measurement. The size distribution profile was analyzed using the manufacturer's Dynamics V6 software.

[3] = Cross-linking reactions with sulfo-EGS; type: physicochemical; conditions: 10-fold molar excess sulfo-EGS, 30 min, room temperature
Method: Cross-linking of streptavidin and its muteins was carried out using sulfo-EGS [ethylene glycolbis(sulfosuccinimidyl succinate)] (Pierce) as the cross-linker. A typical reaction mixture (20 μl) contained the purified mutein (0.2 5 mg/ml) and sulfo-EGS (10-fold molar excess over the protein) in PBS. After 30 min at room temperature, the reaction was quenched with Tris-HCl (30 mM, pH 7.5). Aliquots of the cross-linking reaction samples were boiled and examined by SDS-PAGE. Lysozyme (Sigma, 0.25 mg/ml) was included in the study to help establish the optimal reaction conditions.

[4] = Apparent molecular mass by gel filtration (Bio-Prep SE 100/17); type: physicochemical
Source text: FIG. 6: Gel filtration profiles of streptavidin muteins. FIG. 6A. […] Bovine gamma-globulin (158 kDa), bovine serum albumin (66 kDa), ovalbumin (44 kDa), myoglobin (17 kDa) and vitamin B-12 (1.35 kDa) were used as molecular mass markers (closed circles) to calibrate the column. The logarithm of molecular mass was plotted versus Kav (Kav=(Ve−Vo)/(Vt−Vo); Ve, elution volume; Vo, void volume; Vt, bed volume). Positions of wild-type streptavidin (wt) and streptavidin muteins are represented by solid squares. FIG. 6B. Elution profile of M4 mutein (loaded at 2 mg/ml) on the gel filtration column.
as §1

[5] = test system: proteinase K; assay: Proteinase K digestion of streptavidin and its muteins; type: biochemical
Method: Purified streptavidin and its muteins (30 μM monomer) were treated with proteinase K (Invitrogen, 5 μM) for 15 min at 30° C. in 50 mM Tris-HCl containing 5 mM CaCl2, pH 8.0. The reaction was stopped by precipitation with trichloroacetic acid (Ellison, 1995). Boiled samples of precipitated proteins were resolved by reducing SDS-PAGE. The same analysis was performed with streptavidin samples treated with biotin (1 mM final concentration) prior to proteinase K digestion.

[6] = test system: Biotin-conjugated bovine serum albumin; assay: Kinetic analysis by surface plasmon resonance BIAcoreX biosensor; type: binding; conditions: interaction with biotin
Method: FIG. 8: Kinetic parameters for the interaction between M4 streptavidin mutein and biotin as monitored by BIAcore biosensor. A. On-rate (ka) determination. ka is derived from association analysis. kd is the slope of the plot of In(Ro/Rt) versus (t−to) where Ro is the response at an arbitrary starting time to; Rt is the response at time t.
The kinetic parameters (both on- and off-rates for interaction with biotin) of streptavidin muteins were determined in real time using the surface plasmon resonance based BIAcoreX biosensor. Biotin-conjugated bovine serum albumin immobilized on CM5 sensor chip was used to study the reversibility of biotin binding (Qureshi, 2001).

[7] = independent of the presence or absence of biotin, 5 μM proteinase K, 15 min, 30° C.

Substance	Monomer (percentage of streptavidin in monomeric state) ([1]; No additional biotin)	Monomer (percentage of streptavidin in monomeric state) ([1]; With additional biotin (20 μM))	RH (nm) (Dynamic light scattering) ([2]; no biotin)	M (kDa) (Dynamic light scattering) ([2]; no biotin)	Oligomeric state after cross-linking with sulfo-EGS (SDS-PAGE) [3]	M (kDa) (Gel filtration) ([4]; no biotin)	further results
V125R: streptavidin mutein carrying the single mutation V125R	92%	12%	–	–	–	–	–
Wt: wild-type streptavidin produced by B. subtilis WB800 [reference compound]	–	–	3.69 ± 0.19 nm	69 kDa	most of these subunits were cross-linked to dimers and higher oligomers	56.23 kDa	M (kDa) (Gel filtration) ([4]; no biotin, listed as wild-type streptavidin): 56 kDa; Susceptibility to proteinase K digestion [5, 7]: converted to the core form
M2: streptavidin double mutant carrying T76R and V125R mutations	100%	100%	1.98 ± 0.24 nm	17 kDa	migrated as monomers	19.95 kDa	RH (nm) (Dynamic light scattering) ([2]; +biotin): 2.09 ± 0.29 nm; M (kDa) (Dynamic light scattering) ([2]; +biotin): 18 kDa; M (kDa) (Gel filtration) ([4]; +biotin): 23.44 kDa; ka, on-rate [6]: 1.88 ± 0.07 × 10^4 M^−1s^−1; kd, off-rate [6]: 3.22 ± 0.01 × 10^−3 s^−1; Susceptibility to proteinase K digestion [5, 7]: completely digested
V125T: streptavidin mutein carrying the single mutation V125T	25%	0%	–	–	–	–	–
V55T: streptavidin mutein carrying the single mutation V55T	1%	0%	–	–	–	–	–
AK: prior art streptavidin mutein carrying double mutations D61A, W120K [reference compound]	100%	100%	3.20 ± 0.23 nm	50 kDa	cross-linking profile very similar to that of the wild type streptavidin	45.66 kDa	RH (nm) (Dynamic light scattering) ([2]; +biotin): 3.54 ± 0.38 nm; M (kDa) (Dynamic light scattering) ([2]; +biotin): 63 kDa; M (kDa) (Gel filtration) ([4]; +biotin): 50.12 kDa; ka, on-rate [6]: 1.46 ± 0.05 × 10^4 M^−1s^−1; kd, off-rate [6]: 3.59 ± 0.03 × 10^−3 s^−1; Susceptibility to proteinase K digestion ([5]; absence of biotin): most of it was digested; Susceptibility to proteinase K digestion ([5]; biotin present (1 mM)): much more resistant
V55R: streptavidin mutein carrying the single mutation V55R	20%	10%	–	–	–	–	–
M1: streptavidin mutein carrying the single mutation T76R	100%	100%	–	–	–	–	–

From US20060246519A1, “MONOMERIC STREPTAVIDIN MUTEINS” (priority 2005, published 2006)
